In patent publication US20150011431A1 (Scripps Research, published 2015):

Columns and labels:
CXCR1 [1] = target: T1, CXCR1 (UniProt P25024 1-350, limits assumed); experiment: flow cytometry; fluorescence on CXCR1-U2OS cells over fluorescence on parental U2OS cells
T1 construct: whole, on cells; DiscoveRx cells engineered with a luminescent reporter enzyme for beta-arrestin recruitment; also called CXCR1-U2OS; U2OS-CXCR1
T1 sequence (looked up): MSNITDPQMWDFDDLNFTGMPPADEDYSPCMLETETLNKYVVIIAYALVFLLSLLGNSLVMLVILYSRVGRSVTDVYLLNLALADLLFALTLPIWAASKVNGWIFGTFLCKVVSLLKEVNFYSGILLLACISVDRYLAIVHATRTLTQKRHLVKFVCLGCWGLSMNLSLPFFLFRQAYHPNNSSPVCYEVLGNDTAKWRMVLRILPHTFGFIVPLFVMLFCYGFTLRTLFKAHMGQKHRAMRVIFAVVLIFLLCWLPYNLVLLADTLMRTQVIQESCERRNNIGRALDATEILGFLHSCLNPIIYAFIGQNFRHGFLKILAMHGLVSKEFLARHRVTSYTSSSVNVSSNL
Protocol: In an exemplary method, BLV1H12 IgG comprising a CDR3 with an IL-8 insert (e.g., the IL-8 sequence replaced a portion of the CDR3) was evaluated for binding to CXCR1 expressing cells by flow cytometry. Briefly, a cell line expressing functionally validated CXCR1 derived from U2OS cells was obtained from DiscoveRx and cultured per manufacturer's instructions (Cat#93-0226C3, DiscoveRx Corporation, Freemont, Calif.). The parental cell line U2OS was obtained from ATCC and cultured under the same conditions as the CXCR1 cells. Cell culture supernatants were then tested for binding to cells by flow cytometry. The adherent U2OS or CXCR1-U2OS cells were dissociated with Accutase (Innovative Cell Technologies, Inc., San Diego, Calif.), neutralized with an equal volume of media containing 10% serum, centrifuged at 1000 g, and resuspended in PBS with 2% BSA. Next, cells were dispensed into microtiter plates to achieve between 30,000 to 300,000 cells per well, centrifuged again, and resuspended in cell culture supernatant containing expressed IgG, or a dilution of IgG-containing cell culture supernatant. A fluorescent-conjugated anti-Human Fc antibody was used to detect binding of the expressed antibody to cells.
Alternatively, using the BLV1H12 light chain variable region as a guide, the human germline sequences identified with closest homology were V1-47 and V1-51.

CXCR1 [2] = target: T1, CXCR1; experiment: flow cytometry with 2 ug/ml heparin sulfate, IgG normalized to 10 nM; CXCR1-U2OS against parental U2OS cells
Protocol: Cell culture supernatants were then tested for binding to cells by flow cytometry. The adherent U2OS or CXCR1-U2OS cells were dissociated with Accutase (Innovative Cell Technologies, Inc., San Diego, Calif.), neutralized with an equal volume of media containing 10% serum, centrifuged at 1000 g, and resuspended in PBS with 2% BSA. Next, cells were dispensed into microtiter plates to achieve between 30,000 to 300,000 cells per well, centrifuged again, and resuspended in cell culture supernatant containing expressed IgG, or a dilution of IgG-containing cell culture supernatant. A fluorescent-conjugated anti-Human Fc antibody was used to detect binding of the expressed antibody to cells.
In an exemplary method, variants of V1-51 were made by overlap PCR and subcloned into pFuse vector for expression as described in Example 4. […] These V1-51 variants were paired with heavy chains encoding VH4-34+CDR3-IL8 (SEQ ID NO: 430), VH4-34+CDR3-IL8_CDR1 Cow (SEQ ID NO: 432), VH4-34+CDR3-IL8_CDR2 Cow (SEQ ID NO: 433), or VH4-34+CDR3-IL8_CDR1 Cow CDR2 Cow, (SEQ ID NO: 436). Transfections and ELISA were carried out as described above, and flow cytometry was used to evaluate CXCR1 binding specificity as previously described, with the modification that cells were resuspended in 2% BSA in PBS plus 2 ug/ml Heparin sulfate, and IgGs were normalized to 10 nM during incubation on cells.

B1: IgG with VH4-34+CDR3-IL8_CDR1 Cow_CDR2 Cow and light chain V1-51 (antibody)
heavy: not shown
light: QSVLTQPPSVSAAPGQKVTISCSGSSSNIGNNYVSWYQQLPGTAPKLLIYDNNKRPSGIPDRFSGSKSGTSATLGITGLQTGDEADYYCASAEDSSSNAVFGSGTTLTVLGQPKAAPSVTLFPPSSEELQANKATLVCLISDFYPGAVTVAWKADSSPVKAGVETTTPSKQSNNKYAASSYLSLTPEQWKSHRSYSCQVTHEGSTVEKTVAPTECS
notes: IgG, human IgG1 CH1-CH2-CH3; supernatant; also called Cow / Cow / V1-51; VH4-34 CDR3-IL8 CDR1-Cow & CDR2-Cow with V1-51
- CXCR1/Parental Ratio (CXCR1 [1]): 3.1
- CXCR1 specificity (CXCR1 [2]): 11.1
